Five sequences from the DeepSol protein solubility set can be followed below.

A short description of this data set: soluble on expression in E. coli; label from the status in PepcDB or PDB records.
As to “MGSDKIHHHHHHVTIPTQAKFTLRGRNPDVLSCIANLSNDEVFTPPEFAARMLDTLAQAWAEDHGGANLWADPTVRFLDPCTKSGVFLREITRRLVEGLAEQMPDLQKRVDHILTRQVFGIGITRLTALLARRSVYCSKYANGPHSIAKSFTTEAGNIWFERVEHTWKNGRCVYCGASQGTLDRGEELESHAYAFIHTDDIKTRITEIFGDDMQFDVIIGNPPYQLASDGGTRDIPIYQHFVEQAKKLDPKYLVMVIPSRWMASGLGLSEFRQTMLADRRIRELVDFPVATEVFPGVEVKGGVCYFLWNAAREGDCNVTTVRGEELRSCTLQF”, the “soluble on expression in E. coli” value was “not soluble”.
Under “DDFVSLGTSGWHARVVSTVSDPSEVRQFALPDGGILRIASVLSVGGTADWARSVLLPGVSAKEADALMLQRPRLATGLLSLPSIQGESFPVRSHSVGGCILGMRGNQDPLTLYTAVIEGICMTLAHDIKPGGILPATGGGARSVPWMRILASVTNRNIHVTVSEDAALHGAASLAAYATSAEYLPTLAARAIVEIEPEPEVVASFEPLIAKHLELFRFAAALSY” stands “not soluble”; under “MLKYSNHMAFKDLREYIEFMKKKGKLIEVDDEVSVDLEIAEITRKATYAHLPPLLFKRVKNYENWKIVSNIFYSIESLYEIFGTNKLESISEGFLSNLSNMPITFFDKIKSLREILGLGKVMPKAKSPSFKEEKNLDLTKIPAIKTWPKDAGRYLTFSITITKDPETDVHNLSVYRVQILNEKEAIIHWQAFKRGALTAKKYLEKGISKIPIAVVTGVDPAIAFTAASPVPHGIDKYMFAGILRGEGIDVAELDNQLLVPSHSEVVLTGYVDLNDMRLEGPFGDHMGYYTPADYYPVFKLERVYIREDPIFHVTSVGKPPLEDAWIGKAVERIFLPFAKMLVPELIDMNLPEYGLFTGIGIFSIKKYYPGQAKRVMMALWGTGQLSLLKIIIVVDQDIDVHDINQVIYAIAANVDPKRDVWVIENALTDSLDPSVPFPPLGSKLGIDATRKFKEEMGKEWPEEVRSDEVVAKKADQILNKIIKRYQTSLEHHHHHH”, “not soluble”.
For the sequence “MAHHHHHHMHLLSFLSFIIWFIHCTAKRHEYSIKKYFLNSHNFCKIKPDPFRKDTLKKRLYSSDGIKDEIIIGTRDSPLALKQSEKVRKKIMSYFKKMNKNINVTFKYIKTTGDNILDSKSVGLYGGKGIFTKELDEQLINGNVDLCVHSLKDVPILLPNNIELSCFLKRDTINDAFLSIKYKSINDMNTVKSVSKTEDIHHINKKDSDHNNDTLCTIGTSSLRRRSQIKNRYKNIYVNNIRGNINTRIEKLYNGEVDALIIAMCGIERLIKKANLKHLLKNKEQKNICQPFLLKCNNKKCIDLCHVNIQKLNKNLIYPALGQGIIAVTSHKKNYFISSLLKNINNKKSEMMAQIERSFLYHIDGNCMMPIGGYTNMRNEDIYLHVIINDIHGYNKYQVTQKDTLYNYKEIGPNAAIKMKEIIGTEQFNKIKAEAELHLLNNK”, the “soluble on expression in E. coli” value is “not soluble”.
Take “MSLSTTPGLYAVIKLTHLYLPGTLKIHHLKGQLLDQFSIGEMEYQHQGTKIKIFNLAVNWRFSSLLHKKLPIDSMSAEMIEINQKTPMLILKNIKLSGYLNQQSIKLNTLQFNYWNQLITSQLELSNSFPHVFSGKIRLNPHSTNKNIFSGGVDIGGNRNQIQWGGEFEGPGKITINGSLQQLKQIKQIIKWRDLHWQDNKNHNLKSSQGRIEVSGTIPNLAIDLKSKLGIDQLKNWQMNAAIKGKLPWQWNINATFSQPLDFSSKLDGLYTKFALKMETKNDHHADFLITIAPGHYQMTENNLMPLIQFTGGNIKGSLSQKQFSGQGVLFLDAYKKVNFNFKFPEFNVYQDIAQQTIDAKLSILFNSLDFLQNASPYLINPKGQFLASIHAKGTLNKPIIESKLALNKGSFNIPALGLNITDMVLAVFSKKDGWEATGSIHSSEKKLTLKGQGIFNKELGGTVSIEGSNFPIANNKEFQVNISPQLQVRFTPSLCQITGTIQIPNAHIKPQTFTNSLVATDDIVFTSKNTQPITPLFNTNMSVRVEMGEEVELTFKGLHAYLAGIVTINQLSQGPITANGELTVRKGEYKAYGQDLSIEQGQLIFTGGRIDNPEINLRASKNISNSFGSVSGSSELFNFNNYNNLNVGNNFNVGVEVAGRLQSPKIQLFSNPPTLSQADILSFLVIGRPANQADKAKGQLLLTAISSMNLGTGTNGTQLLEQLKQKLGFDFNVQTTTNFNQQTNKISESTGVVVGKSLSDRIYLSYNVGLSQTDPNVLTLKYILNKFLSIQVSSSDSGNGVDILYTKSTSSPEEGHHHHHH”: the “soluble on expression in E. coli” value is recorded as “not soluble”.
